The results in this text go back to the DeepSol protein solubility set.

A short description of the data set: soluble on expression in E. coli; label from the status in PepcDB or PDB records.
Regarding “MTAEPMSESKLNTLVQKLHDFLAHSSEESEETSSPPRLAMNQNTDKISGSGSNSDMMENSKEEGTSSSEKSKSSGSSRSKRKPSIVTKYVESDDEKPLDDETVNEDASNENSENDITMQSLPKEDGLHGIVSCTACGQQVNHFQKDSIYRHPSLQVLICKNCFKYYMSDDISRDSDGMDEQCRWCAEGGNLICCDFCHNAFCKKCILRNLGRKELSTIMDENNQWYCYICHPEPLLDLVTACNSVFENLEQLLQQNKKKIKVDSEKSNKVYEHTSRFSPKKTSSNCNGEEKKLDDSCSGSVTYSYSALIVPKEMIKKAKKLIETTANMNSSYVKFLKQATDNSEISSATKLRQLKAFKSVLADIKKAHLALEEDLNSEFRAMDAVNKEKNTKEHKVIDAKFETKARKGEKPCALEKKDISKSEAKLSRKQVDSEHMHQNVPTEEQRTNKSTGGEHKKSDRKEEPQYEPANTSEDLDMDIVSVPSSVPEDIFENLETAMEVQSSVDHQGDGSSGTEQEVESSSVKLNISSKDNRGGIKSKTTAKVTKELYVKLTPVSLSNSPIKGADCQEVPQDKDGYKSCGLNPKLEKCGLGQENSDNEHLVENEVSLLLEESDLRRSPRVKTTPLRRPTETNPVTSNSDEECNETVKEKQKLSVPVRKKDKRNSSDSAIDNPKPNKLPKSKQSETVDQNSDSDEMLAILKEVSRMSHSSSSDTDINEIHTNHKTLYDLKTQAGKDDKGKRKRKSSTSGSDFDTKKGKSAKSSIISKKKRQTQSESSNYDSELEKEIKSMSKIGAARTTKKRIPNTKDFDSSEDEKHSKKGMDNQGHKNLKTSQEGSSDDAERKQERETFSSAEGTVDKDTTIMELRDRLPKKQQASASTDGVDKLSGKEESFTSLEVRKVAETKEKSKHLKTKTCKKVQDGLSDIAEKFLKKDQSDETSEDDKKQSKKGTEEKKKPSDFKKKVIKMEQQYESSSDGTEKLPEREEICHFPKGIKQIKNGTTDGEKKKKK”, the “soluble on expression in E. coli” value is on record as “soluble”. For “MTALAVAPASAACAIAAEAIHCAAMDTASAADEALMLAYGAEGDMDAFDALYARHRAGLYRYILRSARNAAQADDIFQETWSRVIDARARYRPQARFTTWLLQIAHNLLVDAHRRQPAPVAPEQAEAALASVPAAEHEQPEARLSEFQQRRRLQLAIERLPDEQRLAMLLRLEHDLDVEEIAQVTGVSRETVKSRLRYATRRIREELSSESAPRSP” the value was “not soluble”.

As to “MTALTEGAKLFEKEIPYITELEGDVEGMKFIIKGEGTGDATTGTIKAKYICTTGDLPVPWATILSSLSYGVFCFAKYPRHIADFFKSTQPDGYSQDRIISFDNDGQYDVKAKVTYENGTLYNRVTVKGTGFKSNGNILGMRVLYHSPPHAVYILPDRKNGGMKIEYNKAFDVMGGGHQMARHAQFNKPLGAWEEDYPLYHHLTVWTSFGKDPDDDETDHLTIVEVIKAVDLETYR”, the “soluble on expression in E. coli” value was “soluble”. “MTAMPRIAFLASPAEPAVAARARLVQRYGDHALHDADIVCALGGDGFMLQTLHRHGAADKPVFGMKLGSVGFLMNQYRDDEDDLLARLQRAEPAHLRPLEMLVQTESGTSAGSLAYNEVSLLRQTRQAAHLSVDLNGQTRIAELIGDGVMVATPAGSTAYNYSAHGPILPLGSHTLALTPIAPYRPRRWRGAILKADTEVRFRVLDPYKRPVSVTADSHEIRDVVEVTIRESTERRVTLLFDPEHNLEERIFSEQFAVLEHHHHHH”: the “soluble on expression in E. coli” value is listed as “not soluble”. In the case of “MTAPFNALLIANRGEIAIRIARACADLGIRSVAVFAEDDAASLHVRKADVALPLAGRGVAAYLDMDRLVALALEQGCEAIHPGYGFLAENGEFARRCQRAGIHFVGPQAEVLDLFGDKAAARALAERLEVPLVAGINRAVSVEEAEAFLEGLGDGAAVMLKALAGGGGRGMRAVEEVAQLADAYRRCRAEAQAAFGRDELYVEQRVARARHIEVQVLGDGSGAVSHLWERDCSLQRRQQKLLEIAPSPDLPEATREALIDCALRMAGAVRYRGIGTFEFLVDDERPGRFYFMEANPRIQVEHTVTEEVTGVDLLHAQLRLAAGMELAALGLERPPAIGGCAVQLRINLETLAADGSARPAVGTIGAYEPPSGPGLRVDGYGYAGYRVSPSYDSLLAKLVVRGADYPAALRRAYRALCEFRLEGVASNLDLLRNLLLHPAVQANRVDTRFVESHLETLLAPIPASHPRLRAECPLAEDAAPARVEAPLGSLPLSAPSSGVLVALEVADGERVRAGQRVAILEAMKMEFEVKAPGGGIVRRLAASLGEPLEEGATLLFLEPTEDDDEQAPTEQALDLAHIRADLAEVLERQAALGDERRPQALARRRKTGQRTARENVLDLLDEGSFSEYGGFALAAQRRRRSAEELLELSPADGLVAGTGTVGAASFGVQAARCLVLAYDYTVFAGTQGVMNHKKTDRLLGLAEQWRLPLVLFAEGGGGRPGDTDFVGVAGLDCHTFVGMARLSGLVPLVGVVSGRCFAGNAALLGCCDVIIATRDATIGMAGPAMIEGGGLGRFAAEEVGPTGVQGPNGVIDVLVEDEAEAVAVARRYLGYFQGPLPDWSCADQRELRHLVPENRLRAYDIRQAIEVLADRGSVLELRRQFAPGLVTALLRIEGRAFGLIANNPGHLGGAIDAAAGDKAARFMQLCDAFDIPIVSLCDTPGFMVGPEAEKQATVRHVSRMFVSAASLTVPFFTVVLRKGYGLGAQAMAAGSFHSPLFTVAWPSGEFGAMGLEGAVRLGFAKELAAEEDPQRREALFRGMVDKAYRNGKALNMASYLEIDAVIDPAETRAWLLRGLAVAGEPAPRAGRKRPF”, the “soluble on expression in E. coli” value was “not soluble”.

Regarding “MTAPTLAPIDPPARAQLLADLQGAPDWDVIVIGGGATGLGTAVDAAARGYRTLLVEAADFAKGTSSKATKLVHGGVRYLAQGNISLVREALHERGLLNRNAPHLVWPLGFVVPAYSLLDQPFYGVGLKMYDMLAGKLNLAPSRWLSRGETLRHAATVAERVNGRALRGGILYYDGQFDDARLAIALMRTLYDLGGVALNYARAVGLTRTDGRVDGVTVADALGELRVTLRAKCVVNATGVWVDAVRRMDDPAAQTMVAPSQGVHLTLPRDFLPGEDAILIPKTDDGRVLFVVPWNGHTIVGTTDTPRTDLPLDPQAGQNEIDFILATAARYLSRKPTRADVTSVWAGLRPLVKATGEASTKSLSREHTIVVSKGGLVTVTGGKWTTYRKMAQDVVDTAIQHKLLAAAPCRTSELPLHGAPTDGQPSGAPHGTPDSYYGTDLATLRALPGADRMLVKASALTEAHVRYAARHELARTVEDVLARRNRALFLDAEAALLAAPEVARILAQELGHDEAWSRATLAEFEAVAAHYRLALEHHHHHH”, the “soluble on expression in E. coli” value is “soluble”. For the sequence “MTAPTLAPIDPPARAQLLTDLQGAPDWDVIVIGGGATGLGTAVDAAARGYRTLLVEAADFAKGTSSKATKLVHGGVRYLAQGNISLVREALHERGLLNRNAPHLVWPLGFVVPAYSLLDQPFYGVGLKMYDMLAGKLNLAPSRWLSRGETLRHAATVAERVNGRALRGGILYYDGQFDDARLAIALMRTLYDLGGVALNYARAVGLTRTDGRVDGVTVADALGELRVTLRAKCVVNATGVWVDAVRRMDDPAAQTMVAPSQGVHLTLPRDFLPGEDAILIPKTDDGRVLFVVPWNGHTIVGTTDTPRTDLPLDPQAGQNEIDFILATAARYLSRKPTRADVTSVWAGLRPLVKATGEASTKSLSREHTIVVSKGGLVTVTGGKWTTYRKMAQDVVDTAIEHKLLAAAPCRTSELPLHGAPADGQPNGAPHGTPDSYYGTDLATLRALPGADRMLVKASALTEAHVRYAARHELARTVEDVLARRNRALFLDAEAALLAAPEVARILAQELGHDEAWSRATLAEFEAVAAHYRLALEHHHHHH”, the “soluble on expression in E. coli” value is “not soluble”.

For the sequence “MTAQTPRPYPSPYGRGNWYADTVTDVPASPPLDGDVAAEVCIIGAGFTGLGAALALGSRAVVLEAGRIGCAASGRNGGQVHTGQRRDQAWLEKTVGRDDALALWRLAEEARAHFASLVTAIDCDWRPGMIHARHKPGGEAEDADYLALMADRYGYDQLELIGETALAHELGTDVYHGGLADHGGGHVHPLKLAQGMAAQARAAGAVIHENTRADAWRREGGKIVVETGGGRVTCDQLILSGDGLLNRMAGPAQARVMPINNFIAVTAPLGALADEIIRSNAAVSDSRFVVNYFRKTPDGRLLFGGGENYRPGFPHDIAGLVRKNLAKIYPRLADVEITHAWGGTLGITFSRMPFVGEVAQGVRVAAGYSGQGVMLAPYVGKLLAEAALGETGPVDLLSRLPTPPFPGGRLLRWPLTVAGLSWYALRDRLLEHHHHHH”, the “soluble on expression in E. coli” value is reported as “not soluble”. For “MTASKIPIKKVCEHCKQEFIALKTTTKYCSHRCNSRAYKAQKREERVRRTELSEQEKKVSDIIDKPYLSISEAGRLLGISRHTIYRYIYSGNLKAYNLSSQRSIVKREDIERMLAERPYEKRQPRDAIVITELYTTDEVCDIHNISRSSLFAIAKRENIPRTYNRGKTYWSKRHIDAYFAKQAPASHIEEWCTAVEIQERFDMTLTAVYNFISDHNIPRKKVKGKSYYSTKHVEAAKGVLDKAAPSYYTVREAMEKFGLTRDQLYQYTKRYNVPKLKQGRNVLISQQELDEVLKPPSITR” the value was “not soluble”; for “MTASSQAPLKYLQAYPQALQDQVHQLIAQDRLADYLQQRYPAGHQIQSDKALYAYALALKQDHLRNAPAIKKVLFDNRLDLTHRALGLHTKISRVQGGKLKASNEIRVAALFKEAPAEFLKMIVVHELAHFRESDHNKAFYQLCEHMLPGYHQLEFDLRVYLTYNELRASSGKFLEHHHHHH”, “soluble”.

For “MTATAQQLEYLKNSIKSIQDYPKPGILFRDVTSLLEDPKAYALSIDLLVERYKNAGITKVVGTEARGFLFGAPVALGLGVGFVPVRKPGKLPRETISETYDLEYGTDQLEIHVDAIKPGDKVLVVDDLLATGGTIEATVKLIRRLGGEVADAAFIINLFDLGGEQRLEKQGITSYSLVPFPGH”, the “soluble on expression in E. coli” value is recorded as “soluble”. As for “MTATKQTAQVTAVADGTVVTPKGFQAAGVHAGLRYSKNDLGVILCDVPASAAAVYTQSHFQAAPLKVTQASLAVEQKLQAVIVNSACANACTGEQGLKDAYEMRELCAKQFGLALHHVAVASTGVIGEYLPMEKIRAGIEKLVPGATMADAEAFQTAILTTDTVMKRACYQTTVDGKTVTVGGAAKGSGMIHPNMATMLAFITTDANVSSPVLHAALRSITDVSFNQITVDGDTSTNDMVVVMASGLAGNDELTPDHPDWENFYEALRKTCEDLAKQIAKDGEGATKLIEVRVRGAKTDEEAKKIAKQIVGSNLVKTAVYGADANWGRIIGAIGYSDAEVNPDNVDVAIGPIVMLKGSEPQPFSEEEATAYLQQETVVIEVDLHLGDGFGVAWGCDLTYDYVKINASYRT”, the “soluble on expression in E. coli” value was “not soluble”.

As to “MTAVETKKQYLTVFKEDGIAEIHLHINKSNSYDLEFYKEFNAAIDDIRFDPDIKVVIVMSDVPKFFSAGADINFLRSADPRFKTQFCLFCNETLDKIARSPQVYIACLEGHTVGGGLEMALACDLRFMGDEAGKIGLPEVSLGVLAGTGGTQRLARLIGYSRALDMNITGETITPQEALEIGLVNRVFPQAETRERTREYARKLANSATYAVSNIKLAIMNGKEMPLNVAIRYEGELQNLLFRSEDAKEGLSAFLEKRQPNWKGI”, the “soluble on expression in E. coli” value is listed as “soluble”.

With “MTDALEQSVLALEGTVSVLKDSVESLKCANEPSTNLASTMLQTKRVFRLVPEYDVERSKLDLIEEVEPLVRTLGDKLRKSMGRMQRELDTLQQTYELNDLRLKKNISMDDDDALNSPDMGQEYEGRDADDVVMMASSTNEELEELKKLKEKKKQLENKLEILKQK”, the “soluble on expression in E. coli” value was “soluble”. “MTDESDSTAHVSCIIPVYNDSVGIKNTLRSVVGQEYHGYDVYVVDNGSTDGSRRRVRNCAAESDDIQLLVEDEVQGSYAARKTGVQNAESDVLAFLDADETVDEDWLETALGAMQEQDVDYLGCNVELTCPEDTLVGRYNARTGFPVEEYLEDQNYAPTCALLVRRKVFEDVGPFDARLISGGDREFGDRVHDAGYEQGYAENATVYHPARTSLESLAKKNFRVGRGFCQKQRYYPERYGKPGIPPTPSGPSGGDDGDEPDASLTRLAFTLLSIAMLACRGVGYYYEFVVGEENDDIPAPTSLEHHHHHH”: the “soluble on expression in E. coli” value is “not soluble”.
